From patent US20190077876A1 (AbbVie / Abbott, published 2019)
Each block holds one molecule with its values, some of them ahead of it.

How the values were obtained:
[1] = target: T1, human CLDN9 protein (human, UniProt O95484 1-217); test: flow cytometry on cells overexpressing human CLDN9; 10 µg/mL control antibody, Alexa 647 anti-mouse secondary; single point
T1 sequence (looked up): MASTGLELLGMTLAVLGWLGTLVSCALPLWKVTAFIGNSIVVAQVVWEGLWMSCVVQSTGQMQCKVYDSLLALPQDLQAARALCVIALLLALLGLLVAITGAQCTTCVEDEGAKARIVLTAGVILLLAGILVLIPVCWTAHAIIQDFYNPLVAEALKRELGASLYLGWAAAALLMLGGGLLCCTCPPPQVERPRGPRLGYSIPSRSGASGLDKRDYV

[2] = target: T2, human CLDN4 protein (human, UniProt O14493 1-209); test: flow cytometry on cells overexpressing human CLDN4; 10 µg/mL control antibody, Alexa 647 anti-mouse secondary; single point
T2 sequence (looked up): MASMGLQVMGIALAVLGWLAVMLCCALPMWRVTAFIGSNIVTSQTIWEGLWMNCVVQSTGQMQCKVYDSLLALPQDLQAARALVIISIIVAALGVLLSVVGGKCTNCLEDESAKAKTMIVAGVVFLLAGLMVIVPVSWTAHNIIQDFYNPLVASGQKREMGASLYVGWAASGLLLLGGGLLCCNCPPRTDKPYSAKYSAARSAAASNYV

[3] = target: T3, human CLDN6 protein (human, UniProt P56747 1-220); test: flow cytometry on cells overexpressing human CLDN6; 10 µg/mL control antibody, Alexa 647 anti-mouse secondary; single point
T3 sequence (looked up): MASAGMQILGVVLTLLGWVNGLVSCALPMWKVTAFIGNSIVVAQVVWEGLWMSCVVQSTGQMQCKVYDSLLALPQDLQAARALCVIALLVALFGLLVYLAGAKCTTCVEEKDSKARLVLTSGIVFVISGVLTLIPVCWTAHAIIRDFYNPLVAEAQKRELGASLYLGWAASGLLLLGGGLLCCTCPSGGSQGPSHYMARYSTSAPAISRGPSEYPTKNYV

[4] = target: T3, human CLDN6 protein; test: flow cytometry, antibody titration on HEK-293T cells overexpressing CLDN6, four parameter fit of fraction maximal binding; HEK-293T cells overexpressing CLDN6
Source text: (§1) Following additional washing with PBS, cells were fixed with paraformaldehyde (PFA) and read on a BD FACS Canto II flow cytometer in accordance with the manufacturer's instructions. MFI values were normalized using fluorescent microspheres (Bangs Laboratories) according to manufacturer's instructions.

[5] = target: T1, human CLDN9 protein; test: flow cytometry, antibody titration on HEK-293T cells overexpressing CLDN9, four parameter fit of fraction maximal binding; HEK-293T cells overexpressing CLDN9
Source text: as §1

[6] = target: T1, human CLDN9 protein; test: flow cytometry on cells overexpressing human CLDN9; 10 µg/mL purified antibody, Alexa 647 anti-mouse secondary; single point
[7] = target: T2, human CLDN4 protein; test: flow cytometry on cells overexpressing human CLDN4; 10 µg/mL purified antibody, Alexa 647 anti-mouse secondary; single point
[8] = target: T1, human CLDN9 protein; test: flow cytometry on cells overexpressing human CLDN9; Alexa 647 anti-mouse secondary; single point
[9] = target: T3, human CLDN6 protein; test: cell-based or functional assay
[10] = target: T2, human CLDN4 protein; test: flow cytometry on cells overexpressing human CLDN4; Alexa 647 anti-mouse secondary; single point
[11] = target: T3, human CLDN6 protein; test: cell-based or functional assay; remark: listed apart in the source
[12] = target: T3, human CLDN6 protein; test: flow cytometry on cells overexpressing human CLDN6; 10 µg/mL purified antibody, Alexa 647 anti-mouse secondary; single point
[13] = target: hCLDN proteins on the surface of PDX tumor cells; test: flow cytometry on PA49 (PDAC) PDX tumor cells, NTG subpopulation; change in geometric MFI against the IgG1 isotype control
[14] = target: hCLDN proteins on the surface of PDX tumor cells; test: flow cytometry on PA20 (PDAC) PDX tumor cells, CSC subpopulation (EPCAM+ CD46hi CD324+); change in geometric MFI against the IgG1 isotype control
[15] = target: hCLDN proteins on the surface of PDX tumor cells; test: flow cytometry on OV91MET (OV-PS) PDX tumor cells, CSC subpopulation (EPCAM+ CD46hi CD324+); change in geometric MFI against the IgG1 isotype control
[16] = target: hCLDN proteins on the surface of PDX tumor cells; test: flow cytometry on PA24 (PDAC) PDX tumor cells, NTG subpopulation; change in geometric MFI against the IgG1 isotype control
[17] = target: hCLDN proteins on the surface of PDX tumor cells; test: flow cytometry on OV54MET (OV-S) PDX tumor cells, CSC subpopulation (EPCAM+ CD46hi CD324+); change in geometric MFI against the IgG1 isotype control
[18] = target: hCLDN proteins on the surface of PDX tumor cells; test: flow cytometry on LU22 (LU-Sq) PDX tumor cells, CSC subpopulation (EPCAM+ CD46hi CD324+); change in geometric MFI against the IgG1 isotype control
[19] = target: hCLDN proteins on the surface of PDX tumor cells; test: flow cytometry on PA24 (PDAC) PDX tumor cells, CSC subpopulation (EPCAM+ CD46hi CD324+); change in geometric MFI against the IgG1 isotype control
[20] = target: hCLDN proteins on the surface of PDX tumor cells; test: flow cytometry on LU22 (LU-Sq) PDX tumor cells, NTG subpopulation; change in geometric MFI against the IgG1 isotype control
[21] = target: hCLDN proteins on the surface of PDX tumor cells; test: flow cytometry on OV91MET (OV-PS) PDX tumor cells, NTG subpopulation; change in geometric MFI against the IgG1 isotype control
[22] = target: hCLDN proteins on the surface of PDX tumor cells; test: flow cytometry on OV44 (OV-S) PDX tumor cells, NTG subpopulation; change in geometric MFI against the IgG1 isotype control
[23] = target: hCLDN proteins on the surface of PDX tumor cells; test: flow cytometry on LU135 (LU-Ad) PDX tumor cells, CSC subpopulation (EPCAM+ CD46hi CD324+); change in geometric MFI against the IgG1 isotype control
[24] = target: hCLDN proteins on the surface of PDX tumor cells; test: flow cytometry on PA49 (PDAC) PDX tumor cells, CSC subpopulation (EPCAM+ CD46hi CD324+); change in geometric MFI against the IgG1 isotype control
[25] = target: hCLDN proteins on the surface of PDX tumor cells; test: flow cytometry on PA20 (PDAC) PDX tumor cells, NTG subpopulation; change in geometric MFI against the IgG1 isotype control
[26] = target: hCLDN proteins on the surface of PDX tumor cells; test: flow cytometry on OV54MET (OV-S) PDX tumor cells, NTG subpopulation; change in geometric MFI against the IgG1 isotype control
[27] = target: hCLDN proteins on the surface of PDX tumor cells; test: flow cytometry on OV44 (OV-S) PDX tumor cells, CSC subpopulation (EPCAM+ CD46hi CD324+); change in geometric MFI against the IgG1 isotype control
[28] = target: hCLDN proteins on the surface of PDX tumor cells; test: flow cytometry on LU135 (LU-Ad) PDX tumor cells, NTG subpopulation; change in geometric MFI against the IgG1 isotype control
[29] = target: T1, human CLDN9 protein; test: cell-based or functional assay
[30] = target: T1, human CLDN9 protein; test: cell-based or functional assay; remark: listed apart in the source

- MFI [1]: 81
- MFI [2]: 73
- MFI [3]: 84
Molecule: mIgG2b control (antibody)

- EC50 [4]: 3.45 µg/mL
- EC50 [5]: 4.66 µg/mL
B1: hSC27.22 humanized anti-CLDN antibody (antibody, human IgG1, kappa, V domains shown)
VH: QVQLVQSGAEVKKPGASVKVSCKASGYTFTSYWMNWVRQAPGQRLEWMGMIHPSDSEIRLNQKFKDRVTITRDTSASTAYMELSSLRSEDTAVYYCARIDSYYGYLFYFDYWGQGTTVTVSS
VL: DIVMTQSPDSLAVSLGERATINCRASQTVSTSSYSYMHWYQQKPGQPPKLLIYFASNVESGVPDRFSGSGSGTDFTLTISSLQAEDVAVYYCQHSWEIPWTFGQGTKLEIKR

- MFI [6]: 86
- MFI [7]: 88
- binding result [8]: no binding (tested: 10 µg/mL)
- binding result [10]: no binding (tested: 10 µg/mL)
- MFI [12]: 99700
B2: SC27.108 mouse monoclonal anti-CLDN antibody (antibody, V domains shown)
VH: QVQMQQSGAELVRPGTSVKVSCKASGYAFTNYLIEWVKQRPGQGLEWIGLINPGSGGTNYNEKFKGKATLTADKSSTTAYMQLSSLTSDDSAVYFCARRSPLGSWIYYAYDGVAYWGQGTLVTVSA
VL: EIVLTQSPALMAASPGEKVTITCSVSSSISSSNLHWYQQKSGTSPKLWIYGTSNLASGVPVRFSGSGSGTSYSLTISNMEAEDAATYYCQQWSSYPHTFGGGTKLEIK
notes: also called SC27.109 (identical)
- apparent IC50 of saporin-mediated cell killing [9]: 100 nM
- apparent IC50 of killing of HEK-293T cells overexpressing hCLDN6; antibody titrated 0.15 to 1000 nM with anti-mouse IgG Fab-saporin, CellTiter-Glo [11]: 102 nM

- ΔMFI [13]: 0
- ΔMFI [14]: 250
- ΔMFI [15]: 118
- ΔMFI [16]: 223
- ΔMFI [17]: 763
- ΔMFI [18]: 733
- ΔMFI [19]: 1580
- ΔMFI [20]: 31
- ΔMFI [21]: 0
- ΔMFI [22]: 53
- ΔMFI [23]: 88
- ΔMFI [24]: 194
- ΔMFI [25]: 60
- ΔMFI [26]: 21
- ΔMFI [27]: 643
- ΔMFI [28]: 17
B3: SC27.1 mouse monoclonal anti-CLDN antibody (antibody, V domains shown)
VH: EVQLQESRPELVKPGASVKISCKTSGYTFTEYTLHWVKQSHGKSLEWIGGINPNNGDTIYNQKFKGKATLTVDKSSSTAYMELRSLTSEYSAVYYCARRAITVYAMDYWGQGTSVTVSS
VL: DIQMTQSSSSFSVSLGDRVTITCKASEDIYNRLAWYQQKPGNAPRLLISGATSLETGTPSRFSGSGSGKDYTLSITSLRTEDAATYYCQQYWSTPLTFGTGTKLELK

- MFI [6]: 12100
- MFI [7]: 75
- binding result [10]: no binding (tested: 10 µg/mL)
- MFI [12]: 99600
B4: SC27.103 mouse monoclonal anti-CLDN antibody (antibody, V domains shown)
VH: EVHLQQSGPELVKPGGSMKISCKASGYSFTGYTMNWVKQSHGKNLEWIGLFNPYNGGTSYNQKFKGKATLTVDKSSSTAYMELLSLTSEDSAVYYCARCYRYDGLDYWGQGTTLTVSS
VL: QIVLTQSPAIMSASLGERVTMTCTASSSVSSSYLHWYQQKPGSSPTLWIYRTSDLASGVPARFSGSGSGTSYSLTISSMEAEDAATYYCHQYHRSPWTFGGGTRLEIK
- apparent IC50 of saporin-mediated cell killing [9]: 58 nM
- apparent IC50 of saporin-mediated cell killing [29]: 466 nM
- apparent IC50 of killing of HEK-293T cells overexpressing hCLDN6; antibody titrated 0.15 to 1000 nM with anti-mouse IgG Fab-saporin, CellTiter-Glo [11]: 57.7 nM
- apparent IC50 of killing of HEK-293T cells overexpressing hCLDN9; antibody titrated 0.15 to 1000 nM with anti-mouse IgG Fab-saporin, CellTiter-Glo [30]: 466 nM
